In the assay the target is ErbB2 (natural, endogenous in BT474 and MCF7 cells) (human (endogenous in MCF7 and BT474)) (UniProt P04626). In words: PICO.

“ErbB3 (endogenous in BT474 and MCF7 cells) (from UniProt P21860 20-1342) (receptor)” had an ErbB2:ErbB3 complexes per cell (ppc), BT474 mock, antibody pair TTZ-2F12 of 662 ppc; an ErbB2:ErbB3 complexes per cell (ppc), BT474 mock, antibody pair TTZ-Ab90 of 831 ppc; an ErbB2:ErbB3 complexes per cell (ppc), MCF7 dactolisib, antibody pair TTZ-2F12 of 8670 ppc; an ErbB2:ErbB3 complexes per cell (ppc), MCF7 mock, antibody pair TTZ-2F12 of 4370 ppc. In addition, the ErbB2:ErbB3 complexes per cell (ppc), MCF7 mock, antibody pair TTZ-Ab90 was 5200 ppc; the ErbB2:ErbB3 complexes per cell, BT474 dactolisib (molecules per cell) was under 181; the percent of ErbB2 bound to ErbB3, BT474 mock came to 0.09%.

Values taken from publication doi:10.1101/2024.03.19.585761.
